Assay results published in publication PMC9712074 (Cell Reports, 2022).

Target: SARS-CoV-2 Omicron BA.1 RBD (SARS-CoV-2 Omicron BA.1, strain)

B1: BD55-3372 (antibody, V domains shown)
VH: EVHLVESGGGLVKPGGSLRLSCAASGFTFSNYAMNWVRQAPGKGLQWVSSITGSSSFIFYADSVKGRFTIVRDNAQNSLYLQMNSLRDEDTAVYYCARERDDYDTRLDWGQGTLVTVSS
VL: QPMLTQPPSVSGAPGQTVTISCVGSSSNIGAGYEVHWYQQLPGTAPKRLLSGNSDRPSGVPDRFSGSKSGTSASLAITGLQADDEADYYCQSYDSSLSLSAVVFGGGTKLTVL
B1: binds.

B2: BD55-3152 (antibody, V domains shown)
VH: QVQLVQSGAEVKKPGASVIVSCKASGYRFISHYIHWVRQAPGQGLEWMGKIDPSGRGTTYAQKLQGRVSVTRDTSTSSVYMALSGLRSDDTAVYYCARDRFPLSDPYVWGSPLGGLDVWGQGTTVIVSS
VL: SYDLTQPPSVSVSPGQTARITCSGDALPSQYVYWYQQRPGQAPVLVMYKDSERPPGIPERFSGSTSGTTATLTITGVQAEDEADYYCQSADASTTYHVFGGGTKVTVV
B2: binds.
